“Also recorded” adds a separate entry of the source.

The test system of series [1] is strains bearing thyA:Val146 alleles. Kind of series: Cysteine suppression of thyA:Val146 alleles on gradient plates. The class given is cell-based, E. coli. Conditions: gradient starting at 100 mM L-cysteine, no thymidine. The procedure: […] Ile-Val (0.3 mM) was added in one plate as a control. The dipeptide Ile-Val was purchased from Bachem A G (Bubendorf, Switzerland). Plates were incubated for 2 days at 30° C.
We took advantage of the thyA conditional selection screen in E. coli, based on the absolute requirement for an active thymidylate synthase when thymidine is not provided as a growth factor (13). This same screen was used previously to assess the potency of suppressor Cys-tRNAs in codon misreading (14) and to enforce phenotypic suppression by the non-canonical azaleucine (15). An entire set of plasmid-borne thyA alleles with all 64 different codons at position 146 was constructed for altering the catalytic site occupied by an essential Cys (16, 17). Each allele was tested for its ability to restore growth to an E. coli strain (lacking the chromosomal copy of thyA) on mineral glucose medium in the absence of thymidine (14, 15). Three of the 64 plasmid-borne thyA alleles restored growth. These had one of three codons-UGU, UGC, or UGA. The growth responses of the UGU and UGC alleles were expected, as these code for cysteine.
Shallow growth was reproducibly observed on L-cysteine gradient plates (18) for the missense alleles having any of the eight codons AUN and GUN alone. […]

The test system of a further series is parent strain β5419. Kind of series: Growth of parent strain in the presence of L-threonine. The class given is cell-based, E. coli. Conditions: all concentrations. The procedure:
(§1) FIG. 1C: Photographs showing the results of growth of a strain carrying the valS:T222P allele in the presence of L-threonine or Abu. Minimal medium plates supplemented with thymidine (0.3 mM) were pretreated with amino acid solutions by streaking either with Thr (50 μl (0.2 M)) or Abu (50 μl (0.1 M)) vertically along the diameter of the plate to create an amino acid gradient. Mutant (β5456) and wild-type (β5419 (thyA::erm+ ΔnrdD::kan+ pTS13 (bla+ thyA: 146GUA)) strains were then streaked horizontally across the plates and incubated for 2 days at 37° C.
(§2) ValRS is known to misactivate Thr and generate Thr-tRNA^Val, which normally is hydrolyzed by the ValRS editing activity (9). If the ValRS mutants in Table 1 are impared for editing, then strains bearing each of these mutations should misincoporate Thr into protein, and L-threonine would then be toxic in these strains. The growth of the five different valS strains was therefore tested in the presence of L-threonine.

The subject of series [2] is five different valS strains (editing mutants). The class given is cell-based, E. coli. The following applies: at 2 mM. The procedure: as §1, §2
The subject of series [3] is tRNA^Val. Kind of series: Misacylation of tRNAVal with cysteine. The class given is biochemical, E. coli. The source says: The T222P mutant enzyme was, therefore, expressed and partially purified so that it could be directly assayed for the ability to misacylate tRNA^Val.
For the next series, the system named is [^3H]Thr-tRNAval. Kind of series: Deacylation of mischarged Thr-tRNAVal by ValRS enzymes. The class given is biochemical, E. coli. The following applies: 2 nM enzyme, room temperature. The procedure:
FIG. 5B: Histogram representation of the inhibition zone diameters of DvalS::kanR strains harboring each of the ValRS editing mutants on plasmid in response to exogenous Abu. Effects range from mild to severe. Histogram representation of the percentage of mischarged Thr-tRNAVal remaining after incubation with 2 nM enzyme for 15 minutes at room temperature. Both show a distinct range in the severity of editing defects caused by these point mutations. Taken together this illustrates a correlation between the ability of the mutant enzyme to deacylate mischarged amino acids from tRNAVal in vitro and the degree of in vivo toxicity.
(§3) Misacylation of Thr onto tRNAval was performed in the same conditions except 5.86 μM [^3H]Thr was substituted forVal in the reaction. To test deacylation rates for these enzymes it was necessary to generate [^3H]Thr-tRNAval. […] Enzyme was incubated with 2.5 μM tRNAval and 45 uM [^3H]Thr, incubated at 37 C. for 45 minutes, extracted twice in phenol:chloroform, and ethanol precipitated. Pellet was dissolved in 100 μL sterile H2O and scintillation counting was used to determine the success of the reaction. Deacylation reactions, done in triplicate for each enzyme, were performed in 155 mM Tris-HCl (pH 7.5), 100 μg/ml BSA, 10 mM MgCl2. At room temperature 2 nM enzyme was combined with [^3H]Thr-tRNAval, at 3, 6, 9, 16, and 30 minutes aliquots (9 μL) of the reaction mixture were precipitated with tricholoracetic acid, and the amount of misaminoacylated [^3H]Thr-tRNAval remaining in the sample was determined by scintillation counting. A no enzyme control reaction was included to provide reference point.

For series [4], the system named is tRNA^Val. The series can be described thus: Aminoacylation of tRNAVal with Val. The class given is biochemical, E. coli. The following applies: pH 7.5, 37° C. As to the method:
(§4) FIG. 2B: A graph showing misaminoacylation of tRNA^Val with Thr by the T222P mutant enzyme at pH 7.5 and 37° C. The wild-type (WT) and mutant alleles were cloned under the control of a PBAD promoter (30). The enzymes were partially purified from a laboratory strain lacking the chromosomal copy of the valS gene (ΔvalS::kan+). The purification and aminoacylation procedures were adapted from Hendrickson et al. (31). (Main panel) Misaminoacylation of tRNA^Val with Thr by the two enzymes. (Inset) Aminoacylation of tRNA^Val with Val by the two enzymes.
(§5) Aminoaclyation Assay, Misacylation, and Deacylation: Aminoacylation assays were performed at 37 C. in a 100 uL volume containing buffer (20 mM HEPES, 0.1 mM EDTA disodium salt, 0.15M NH4Cl, 10 ug/mL BSA pH 7.5), […] MgCl2, 0.7 μM [^3H]Val, 20 μM cold Val, 2 μM tRNAval (Sigma) and 20 nM ValRS enzyme (adapted from Hendrickson et al. 2000). Aliquots (10 μL) of the reaction mixture were precipitated with tricholoracetic acid, and the level of aminoacylation of the tRNA was determined by scintillation counting.

Series [5] has as its system tRNA^Val. Kind of series: Misacylation of tRNAVal with Thr. The class given is biochemical, E. coli. The following applies: pH 7.5, 37° C. The procedure: as §4, §5, §3

In the case of `N[C@@H](CS)C(=O)O` [L-cysteine], in series [1], the “suppression of thyA:Val146 alleles” value is on record as “weak”.
Consider `C[C@@H](O)[C@H](N)C(=O)O` [L-threonine], for which the “sensitivity of growth to exogenous L-threonine” value is given as “insensitive” in the series with parent strain β5419 and “high sensitivity” in series [2].

B1: T222P (protein, UniProt P07118 1-951, looked up, variant T222P)
Valine--tRNA ligase: MEKTYNPQDIEQPLYEHWEKQGYFKPNGDESQESFCIMIPPPNVTGSLHMGHAFQQTIMDTMIRYQRMQGKNTLWQVGTDHAGIATQMVVERKIAAEEGKTRHDYGREAFIDKIWEWKAESGGTITRQMRRLGNSVDWERERFTMDEGLSNAVKEVFVRLYKEDLIYRGKRLVNWDPKLRTAISDLEVENRESKGSMWHIRYPLADGAKTADGKDYLVVATPRPETLLGDTGVAVNPEDPRYKDLIGKYVILPLVNRRIPIVGDEHADMEKGTGCVKITPAHDFNDYEVGKRHALPMINILTFDGDIRESAQVFDTKGNESDVYSSEIPAEFQKLERFAARKAVVAAVDALGLLEEIKPHDLTVPYGDRGGVVIEPMLTDQWYVRADVLAKPAVEAVENGDIQFVPKQYENMYFSWMRDIQDWCISRQLWWGHRIPAWYDEAGNVYVGRNEDEVRKENNLGADVVLRQDEDVLDTWFSSALWTFSTLGWPENTDALRQFHPTSVMVSGFDIIFFWIARMIMMTMHFIKDENGKPQVPFHTVYMTGLIRDDEGQKMSKSKGNVIDPLDMVDGISLPELLEKRTGNMMQPQLADKIRKRTEKQFPNGIEPHGTDALRFTLAALASTGRDINWDMKRLEGYRNFCNKLWNASRFVLMNTEGQDCGFNGGEMTLSLADRWILAEFNQTIKAYREALDSFRFDIAAGILYEFTWNQFCDWYLELTKPVMNGGTEAELRGTRHTLVTVLEGLLRLAHPIIPFITETIWQRVKVLCGITADTIMLQPFPQYDASQVDEAALADTEWLKQAIVAVRNIRAEMNIAPGKPLELLLRGCSADAERRVNENRGFLQTLARLESITVLPADDKGPVSVTKIIDGAELLIPMAGLINKEDELARLAKEVAKIEGEISRIENKLANEGFVARAPEAVIAKEREKLEGYAEAKAKLIEQQAVIAAL
As for B1, in the series with tRNA^Val [3], the “misacylation of tRNA^Val with cysteine” value was “catalyzed only by the mutant enzyme”. Further, the “deacylation of Thr-tRNA^Val in vitro” value in series [^3H]Thr-tRNAval is “most severe defects”. The “activity for charging tRNA^Val with valine” value in the series with tRNA^Val [4] was “same activity as the wild-type enzyme”. The “misacylation of tRNA^Val with Thr” value with tRNA^Val [5] is listed as “high levels of mischarged Thr-tRNA^Val; also recorded: misacylated tRNA^Val with Thr”.

The values are drawn from US7524646B2 (priority 2001, dated 2009).
